This data set concerns Escherichia coli TOP10. Nature of the data set: shrunken log2 fold change of peptide-encoding DNA abundance (4.5 h post-induction vs induction); higher = less antimicrobial activity (less host growth inhibition). Particulars: time post-induction: 4.5 h; library: site-saturation at positions 5, 18, 19, 20.
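Also: peptides expressed intracellularly from a pBAD plasmid library in pooled LB shake-flask culture, induced with 0.3% L-arabinose, DNA abundance read by NGS, three biological replicates, DESeq2 with apeglm shrinkage.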

Take RRIRERPPRLPRPRPRPKKAPRP: the “shrunken log2 fold change” value is -0.0599. On to RRIRFRPPRLPRPRPRPGFGPRP, for which the “shrunken log2 fold change” value was found to be 0.337.

As to RRIRWRPPRLPRPRPRPTELPRP, the “shrunken log2 fold change” value stood at 0.135. As for RRIRRRPPRLPRPRPRPIPMPRP, the “shrunken log2 fold change” value stood at 0.287. The same measure for RRIRNRPPRLPRPRPRPRAMPRP: 0.37; for RRIRLRPPRLPRPRPRPTNIPRP: -0.421. The figure for RRIRWRPPRLPRPRPRPMSCPRP is -0.256; for RRIRWRPPRLPRPRPRPIALPRP it is 0.0387; for RRIRLRPPRLPRPRPRPGKMPRP it is -0.0508.

As for RRIRKRPPRLPRPRPRPLVCPRP, the “shrunken log2 fold change” value came out at 0.191. Consider RRIRERPPRLPRPRPRPSLDPRP, for which the “shrunken log2 fold change” value was -0.35. The figure for RRIRKRPPRLPRPRPRPNGPPRP is -0.00695; for RRIRRRPPRLPRPRPRPSACPRP it is 0.195. Regarding RRIRRRPPRLPRPRPRPHGHPRP, the “shrunken log2 fold change” value amounted to 0.224.

For RRIRMRPPRLPRPRPRPLFTPRP, the “shrunken log2 fold change” value is -0.171. As for RRIRHRPPRLPRPRPRPDYTPRP, the “shrunken log2 fold change” value is -0.00281. On to RRIRGRPPRLPRPRPRPHFFPRP, for which the “shrunken log2 fold change” value amounted to 0.328.

In the case of RRIRNRPPRLPRPRPRPYSFPRP, the “shrunken log2 fold change” value is -1.01. The same measure for RRIRTRPPRLPRPRPRPRNWPRP: 0.325; for RRIRWRPPRLPRPRPRPCSKPRP: -0.0575; for RRIRSRPPRLPRPRPRPTLRPRP: -0.197.

RRIRNRPPRLPRPRPRPAEIPRP: the “shrunken log2 fold change” value was -0.107. Consider RRIRYRPPRLPRPRPRPFIHPRP, for which the “shrunken log2 fold change” value was -1.54. The figure for RRIRGRPPRLPRPRPRPCDFPRP is 0.102.

Regarding RRIRIRPPRLPRPRPRPKPRPRP, the “shrunken log2 fold change” value is 0.576. Turning to RRIRQRPPRLPRPRPRPRRKPRP, the “shrunken log2 fold change” value turned out to be 0.192.

Consider RRIRNRPPRLPRPRPRPTLTPRP, for which the “shrunken log2 fold change” value was 0.0952. For RRIRLRPPRLPRPRPRPNERPRP, the “shrunken log2 fold change” value was -0.0191. The same measure for RRIRYRPPRLPRPRPRPPFDPRP: -0.565; for RRIRARPPRLPRPRPRPPMDPRP: 0.515. For RRIRNRPPRLPRPRPRPMISPRP, the “shrunken log2 fold change” value is -0.0707. As for RRIRSRPPRLPRPRPRPSKCPRP, the “shrunken log2 fold change” value is -0.0382.

Consider RRIRKRPPRLPRPRPRPQYGPRP, for which the “shrunken log2 fold change” value is -0.0781. The figure for RRIRSRPPRLPRPRPRPDRIPRP is -0.249; for RRIRARPPRLPRPRPRPELGPRP it is 1.43. The same measure for RRIRCRPPRLPRPRPRPGGSPRP: 0.0334; for RRIRWRPPRLPRPRPRPLATPRP: 0.766. Turning to RRIRERPPRLPRPRPRPQSQPRP, the “shrunken log2 fold change” value is 0.0662. Turning to RRIRNRPPRLPRPRPRPLRQPRP, the “shrunken log2 fold change” value is 0.154. Regarding RRIRIRPPRLPRPRPRPNWEPRP, the “shrunken log2 fold change” value was found to be 0.00543. The same measure for RRIRFRPPRLPRPRPRPHQNPRP: -0.182; for RRIRARPPRLPRPRPRPGNEPRP: 0.215; for RRIRIRPPRLPRPRPRPDAAPRP: 0.432.

Take RRIRERPPRLPRPRPRPQNMPRP: the “shrunken log2 fold change” value is -1.05. The same measure for RRIRNRPPRLPRPRPRPEPSPRP: 0.145; for RRIRCRPPRLPRPRPRPCDEPRP: -0.0731; for RRIRKRPPRLPRPRPRPCAFPRP: 0.0922.

As to RRIRRRPPRLPRPRPRPNIMPRP, the “shrunken log2 fold change” value was -0.359. Consider RRIRSRPPRLPRPRPRPMLMPRP, for which the “shrunken log2 fold change” value is 0.00173. Regarding RRIRFRPPRLPRPRPRPWSGPRP, the “shrunken log2 fold change” value is -0.221.

(Values after the supplement of paper PMC9112550, “Optimization of the antimicrobial peptide Bac7 by deep mutational scanning” (BMC Biology, 2022).)
